Measurements reported in patent US7119174B2, “Diagnosis and treatment of AUR1 and/or AUR2 related disorders” (Sugen, Inc., priority 1995, dated 2006).
Where a chain is given by its changes, count along the chain named. In names and notes the source's numbering stands.

B1: HA-tagged activated human AUR2 mutant T288D (protein)
chain: MDRSKENCISGPVKATAPVGGPKRVLVTQQFPCQNPLPVNSGQAQRVLCPSNSSQRVPLQAQKLVSSHKPVQNQKQKQLQATSVPHPVSRPLNNTQKSKQPLPSAPENNPEEELASKQKNEESKKRQWALEDFEIGRPLGKGKFGNVYLAREKQSKFILALKVLFKAQLEKAGVEHQLRREVEIQSHLRHPNILRLYGYFHDATRVYLILEYAPLGTVYRELQKLSKFDEQRTATYITELANALSYCHSKRVIHRDIKPENLLLGSAGELKIADFGWSVHAPSSRRTDLCGTLDYLPPEMIEGRMHDEKVDLWSLGVLCYEFLVGKPPFEANTYQETYKRISRVEFTFPDFVTEGARDLISRLLKHNPSQRPMLREVLEHPWITANSSKPSNCQNKESASKQSYPYDVPDYAS
B2: HA-tagged kinase inactive human AUR2 mutant K162M (protein)
chain: B1 chain with K162M, D288T
B3: HA-tagged wild-type human AUR2 (entire coding domain with C-terminal HA epitope) (protein)
chain: B1 chain with D288T
B4: human AUR1 (AURORA ONE), endogenous protein in SW480 cell lysate (protein)
chain: MAQKENSYPWPYGRQTAPSGLSTLPQRVLRKEPVTPSALVLMSRSNVQPTAAPGQKVMENSSGTPDILTRHFTIDDFEIGRPLGKGKFGNVYLAREKKSHFIVALKVLFKSQIEKEGVEHQLRREIEIQAHLHHPNILRLYNYFYDRRRIYLILEYAPRGELYKELQKSCTFDEQRTATIMEELADALMYCHGKKVIHRDIKPENLLLGLKGELKIADFGWSVHAPSLRRKTMCGTLDYLPPEMIEGRMHNEKVDLWCIGVLCYELLVGNPPFESASHNETYRRIVKVDLKFPASVPTGAQDLISKLLRHNPSERLPLAQVSAHPWVRANSRRVLPPSALQSVA
B5: human AUR2 (AURORA TWO), endogenous protein in lysates of human tumors and tumor cell lines (protein)
chain: MDRSKENCISGPVKATAPVGGPKRVLVTQQFPCQNPLPVNSGQAQRVLCPSNSSQRVPLQAQKLVSSHKPVQNQKQKQLQATSVPHPVSRPLNNTQKSKQPLPSAPENNPEEELASKQKNEESKKRQWALEDFEIGRPLGKGKFGNVYLAREKQSKFILALKVLFKAQLEKAGVEHQLRREVEIQSHLRHPNILRLYGYFHDATRVYLILEYAPLGTVYRELQKLSKFDEQRTATYITELANALSYCHSKRVIHRDIKPENLLLGSAGELKIADFGWSVHAPSSRRTTLCGTLDYLPPEMIEGRMHDEKVDLWSLGVLCYEFLVGKPPFEANTYQETYKRISRVEFTFPDFVTEGARDLISRLLKHNPSQRPMLREVLEHPWITANSSKPSNCQNKESASKQS

Target: alpha-casein
Experiment: not given
Details: not given

| Molecule | in vitro kinase assay on protein from stable Rat1 lines |
| --- | --- |
| B1 | the wild-type and activated AUR2 (T288D) proteins had increased activity on this artificial substrate |
| B2 | The kinase inactive AUR2 mutant (K162M) was unable to phosphorylate-casein over the levels observed in the vector control cell line in vitro |
| B3 | the wild-type and activated AUR2 (T288D) proteins had increased activity on this artificial substrate |

Target: myelin basic protein (Sigma)
Experiment: not given
Details: not given

| Molecule | in vitro kinase assay, phosphorylation of myelin basic protein | in vitro kinase assay on protein from stable NIH3T3 lines |
| --- | --- | --- |
| B4 | AUR1 and AUR2 immunocomplexes were able to phosphorylate myelin basic protein |  |
| B5 | AUR1 and AUR2 immunocomplexes were able to phosphorylate myelin basic protein |  |
| B1 |  | the activated AUR2 mutant (T288D) had marked activity on this artificial substrate |
| B2 |  | The wild-type and kinase inactive AUR2 mutant (K162M) were unable to phosphorylate myelin basic protein in vitro |
| B3 |  | The wild-type and kinase inactive AUR2 mutant (K162M) were unable to phosphorylate myelin basic protein in vitro |

System: AUR2
Experiment: AUR2 protein expression by immunoblot after antisense oligo treatment of H1299 cells
Format: cell-based
Details: human tumor cell line H1299, lipofectin, each oligo 1 μM then 200 nM, harvested ~40 hours after initial treatment
Description: Human H1299 cells were seeded at ˜40–50% confluency in a 6 well plate (Falcon). The following day lipofectin (Gibco) and oligo(s) were mixed with OptiMEM (Gibco) such that the final concentration of lipofectin is 100 μg/mL and the final concentration of each oligo is 1 μM in a volume of 200 μL. The lipofectin/oligo/OptiMEM mixture was incubated at room temperature (20–25° C.) for 15 minutes, 800 μL of OptiMEM was added to the lipofectin/oligo/OptiMEM mixture, and mixed gently. The growth medium was removed from the H1299 cells, which were at ˜80% confluency. Cells were washed once with OptiMEM. The OptiMEM was aspirated, the lipofectin/oligo/OptiMEM mixture was added, cultures incubated at 37° C. for 4 hours. The lipofectin/oligo/OptiMEM mixture was removed and replaced with normal growth medium containing the antisense oligo(s) at a concentration of 200 nM. The plates were returned to the 37° C. incubator for 16–20 hours after which the growth medium was removed from the cells and they were washed once with OptiMEM. The OptiMEM was again aspirated and the lipofectin/oligo/OptiMEM mixture was added (prepared as described above) and the plates again were incubated at 37° C. for 4 hours. The lipofectin/oligo/OptiMEM mixture was removed again and replaced with normal growth medium containing the antisense oligo(s) at a concentration of 200 nM. The platea were returned to the 37° C. incubator for 16–20 hours. The cells were harvested (˜40 hours after initial treatment) and analyzed for aur2 mRNA by northern blot or AUR2 protein expression by immunoblot.

| Molecule | AUR2 protein expression |
| --- | --- |
| CAGGGCAGAGTGGTCACTTTC (listed as DNA, chemistry not given here) [SEQ ID NO:30, antisense oligonucleotide to nucleotides 1743–1763 of aur2] | significantly down regulated |
| TGCAGTCGAACCTTGCCTCCA (listed as DNA, chemistry not given here) [SEQ ID NO:32, antisense oligonucleotide to nucleotides 1654–1674 of aur2] | significantly down regulated |
| SEQ ID NO:16: printed in b341 as antisense oligonucleotide targeting human aur2 mRNA; probably misprint for one of SEQ ID NO:30-32 (antisense GARTTYGGNGARGTNTTYYTNGC; listed as DNA, chemistry not fully specified) | significantly down regulate |
| CGTCCGCCACTCCGACCAGCC (listed as DNA, chemistry not given here) [SEQ ID NO:31, antisense oligonucleotide to nucleotides 42–62 of aur2] | significantly down regulated |
| SEQ ID NO:17: printed in b341 as antisense oligonucleotide targeting human aur2 mRNA; probably misprint for one of SEQ ID NO:30-32 (antisense AGNACNCCRAANGCCCACACRTC; listed as DNA, chemistry not fully specified) | significantly down regulate |
